Reference: patent publication US11278600B2, “Human alpha-galactosidase variants” (Codexis, Inc., priority 2014, dated 2022)

Columns and labels:
Type in all cases: biochemical
[1] = HTP-analysis of supernatants pretreated with acid (MUGal hydrolysis); settings: challenge at pH 4.3; activity of the variant/activity of WT GLA (SEQ ID NO: 5); yeast supernatant
Summary of the method: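 Supernatants from INVSc1 yeast secreting GLA variants were challenged at 37° C. for 1-3 h in McIlvaine buffer at pH 3.3-4.3. Residual activity was then measured on 4 mM MUGal substrate stock at pH 4.8 with citrate buffer pH 4.3, over 30-180 min at 37° C. Reactions were quenched with sodium carbonate and read by fluorescence (Ex 355/Em 448 nm).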

[2] = HTP-analysis of yeast culture supernatants, no challenge (MUGal hydrolysis); settings: activity of the variant/activity of WT GLA (SEQ ID NO: 5), yeast supernatant
Summary of the method: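 GLA variants expressed in yeast INVSc1, secreted into SD-Ura broth over 66-84 h at 30° C; clarified supernatants tested without challenge. Supernatant mixed with McIlvaine buffer pH 4.8 and 2 mM MUGal (citrate/KCl, pH 4.6), 37° C for 30-180 min, carbonate-quenched, fluorescence Ex 355/Em 448 nm.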

[3] = HTP-analysis of supernatants pretreated with base (MUGal hydrolysis); settings: challenge at pH 7.0; activity of the variant/activity of WT GLA (SEQ ID NO: 5); yeast supernatant
Summary of the method: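 GLA variants secreted from yeast INVSc1; culture supernatants pre-incubated with McIlvaine buffer pH 7.0–8.2 or 200 mM bicarbonate pH 9.1–9.7 at 37° C. for 1–18 h. Residual activity: MUGal (4 mM stock) hydrolysis at pH 4.3–4.8, 37° C., 30–180 min, carbonate quench; fluorescence Ex 355/Em 448 nm.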

| Molecule | Relative Activity of GLA Variants After Challenge at pH 4.3 [1] | Relative Activity of GLA Variants After No Challenge (NC) [2] | Relative Activity of GLA Variants After Challenge at pH 7.0 [3] |
| --- | --- | --- | --- |
| 24 (protein, Synthetic Polypeptide sequence of Variant No. 24 of mature Human GLA) LDNGLARTPTMGWLHWERFMCNLDCQEEPDSCISEKLFMEMAELMVSEGWKDAGYEYLCIDDCWMAPQRDSEGRLQADPQRFPHGIRQLANYVHSKGLKLGIYADVGNKTCAGFPGSFGYYDIDAQTFADWGVDLLKFDGCYCDSLENLADGYKHMSLALNRTGRSIVYSCEWPLYMWPFQKPNYTEIRQYCNHWRNFADIDDSWKSIKSILDWTSFNQERIVDVAGPGGWNDPDMLVIGNFGLSWNQQVTQMALWAIMAAPLFMSNDLRHISPQAKALLQDKDVIAINQDPLGKQGYQLRQGDNFEVWERPLSGLAWAVAMINRQEIGGPRSYTIAVASLGKGVACNPACFITQLLPVKRKLGFYEWTSRLRSHVNPTGTVLLQLENTMQMSLKDLLL | ++ (++ = >1.5 to 2.5 relative activity over WT GLA (SEQ ID NO: 5)) | + (+ = 0.5 to 1.5 relative activity over WT GLA (SEQ ID NO: 5)) | + (+ = 0.5 to 1.5 relative activity over WT GLA (SEQ ID NO: 5)) |
| 31 (protein, Synthetic Polypeptide sequence of Variant No. 31 of mature Human GLA) LDNGLARTPTMGWLHWERFMCNLDCQEEPDSCISEKLFMEMAELMVSEGWKDAGYEYLCIDDCWMAPQRDSEGRLQADPQRFPHGIRQLANYVHSKGLKLGIYADVGNKTCAGFPGSFGYYDIDAQTFADWGVDLLKFDGCYCDSLENLADGYKHMSLALNRTGRSIVYSCEWPLYMWPFQKPNYTEIRQYCNHWRNFADIDDSWKSIKSILDWTSFNQERIVDVAGPGGWNDPDMLVIGNFGLSWNQQVTQMALWAIMAAPLFMSNDLRHISPQAKALLQDKDVIAINQDPLGKQGYQLRQGDNFEVWERPLSGLAWAVAMINRQEIGGPRSYTIAVASLGKGVACNPACFITQLLPVKRKLGFYEWTSRLKSHINPTGTVLLQLENTMQMSLKDLLL | + (+ = 0.5 to 1.5 relative activity over WT GLA (SEQ ID NO: 5)) | + (+ = 0.5 to 1.5 relative activity over WT GLA (SEQ ID NO: 5)) | + (+ = 0.5 to 1.5 relative activity over WT GLA (SEQ ID NO: 5)) |
| 26 (protein, Synthetic Polypeptide sequence of Variant No. 26 of mature Human GLA) LDNGLARTPTMGWLHWERFMCNLDCQEEPDSCISEKLFMEMAELMVSEGWKDAGYEYLCIDDCWMAPQRDSEGRLQADPQRFPHGIRQLANYVHSKGLKLGIYADVGNKTCAGFPGSFGYYDIDAQTFADWGVDLLKFDGCYCDSLENLADGYKHMSLALNRTGRSIVYSCEWPLYMWSFQKPNYTEIRQYCNHWRNFADIDDSWKSIKSILDWTSFNQERIVDVAGPGGWNDPDMLVIGNFGLSWNQQVTQMALWAIMAAPLFMSNDLRHISPQAKALLQDKDVIAINQDPLGKQGYQLRQGDNFEVWERPLSGLAWAVAMINRQEIGGPRSYTIAVASLGKGVACNPACFITQLLPVKRKLGFYEWTSRLKSHINPTGTVLLQLENTMQMSLKDLLL | + (+ = 0.5 to 1.5 relative activity over WT GLA (SEQ ID NO: 5)) | + (+ = 0.5 to 1.5 relative activity over WT GLA (SEQ ID NO: 5)) | + (+ = 0.5 to 1.5 relative activity over WT GLA (SEQ ID NO: 5)) |
| 30 (protein, Synthetic Polypeptide sequence of Variant No. 30 of mature Human GLA) LDNGLARTPTMGWLHWERFMCNLDCQEEPDSCISEKLFMEMAELMVSEGWKDAGYEYLCIDDCWMAPQRDSEGRLQADPQRFPHGIRQLANYVHSKGLKLGIYADVGNKTCAGFPGSFGYYDIDAQTFADWGVDLLKFDGCYCDSLENLADGYKHMSLALNRTGRSIVYSCEWPLYMWPFQKPNYTEIRQYCNHWRNFADIDDSWKSIKSILDWTSFNQERIVDVAGPGGWNDPDMLVIGNFGLSWNQQVTQMALWAIMAAPLFMSNDLRHISPQAKALLQDKDVIAINQDPLGKQGYQLRKGDNFEVWERPLSGLAWAVAMINRQEIGGPRSYTIAVASLGKGVACNPACFITQLLPVKRKLGFYEWTSRLRSHVNPTGTVLLQLENTMQMSLKDLLL | ++ (++ = >1.5 to 2.5 relative activity over WT GLA (SEQ ID NO: 5)) | + (+ = 0.5 to 1.5 relative activity over WT GLA (SEQ ID NO: 5)) | + (+ = 0.5 to 1.5 relative activity over WT GLA (SEQ ID NO: 5)) |
| 28 (protein, Synthetic Polypeptide sequence of Variant No. 28 of mature Human GLA) LDNGLARTPTMGWLHWERFMCNLDCQEEPDSCISEKLFMEMAELMVSEGWKDAGYEYLCIDDCWMAPQRDSEGRLQADPQRFPHGIRQLANYVHSKGLKLGIYADVGNKTCAGFPGSFGYYDIDAQTFADWGVDLLKFDGCYCDSLENLADGYKHMSLALNRTGRSIVYSCEWPLYMWPFQKPNYTEIRQYCNHWRNFADIDDSWKSIKSILDWTSFNQERIVDVAGPGGWNDPDMLVIGNFGLSWNQQVTQMALWAIMAAPLFMSNDLRHISPQAKALLQDKDVIAINQDPLGKQGYRLRKGDNFEVWERPLSGLAWAVAMINRQEIGGPRSYTIAVASLGKGVACNPACFITQLLPVKRKLGFYEWTSRLKSHINPTGTVLLQLENTMQMSLKDLLL | + (+ = 0.5 to 1.5 relative activity over WT GLA (SEQ ID NO: 5)) | + (+ = 0.5 to 1.5 relative activity over WT GLA (SEQ ID NO: 5)) | + (+ = 0.5 to 1.5 relative activity over WT GLA (SEQ ID NO: 5)) |
| 25 (protein, Synthetic Polypeptide sequence of Variant No. 25 of mature Human GLA) LDNGLARTPTMGWLHWERFMCNLDCQEEPDSCISEQLFMEMAELMVSEGWKDAGYEYLCIDDCWMAPQRDSEGRLQADPQRFPHGIRQLANYVHSKGLKLGIYADVGNKTCAGFPGSFGYYDIDAQTFADWGVDLLKFDGCYCDSLENLADGYKHMSLALNRTGRSIVYSCEWPLYMWPFQKPNYTEIRQYCNHWRNFADIDDSWKSIKSILDWTSFNQERIVDVAGPGGWNDPDMLVIGNFGLSWNQQVTQMALWAIMAAPLFMSNDLRHISPQAKALLQDKDVIAINQDPLGKQGYQLRQGDNFEVWERPLSGLAWAVAMINRQEIGGPRSYTIAVASLGKGVACNPACFITQLLPVKRKLGFYEWTSRLRSHINPTGTVLLQLENTMQMSLKDLLL | + (+ = 0.5 to 1.5 relative activity over WT GLA (SEQ ID NO: 5)) | + (+ = 0.5 to 1.5 relative activity over WT GLA (SEQ ID NO: 5)) | + (+ = 0.5 to 1.5 relative activity over WT GLA (SEQ ID NO: 5)) |
| 29 (protein, Synthetic Polypeptide sequence of Variant No. 29 of mature Human GLA) LDNGLARTPTMGWLHWERFMCNLDCQEEPDSCISEKLFMEMAELMVSEGWKDAGYEYLCIDDCWMAPQRDSEGRLQADPQRFPHGIRQLANYVHSKGLKLGIYADVGNKTCAGFPGSFGYYDIDAQTFADWGVDLLKFDGCYCDSLENLADGYKHMSLALNRTGRSIVYSCEWPLYMWPFQKPNYTEIRQYCNHWRNFADIDDSWKSIKSILDWTSFNQERIVDVAGPGGWNDPDMLVIGNFGLSWNQQVTQMALWAIMAAPLFMSNDLRHISPQAKALLQDKDVIAINQDPLGKQGYRLRKGDNFEVWERPLSGLAWAVAMINRQEIGGPRSYTIAVASLGKGVACNPACFITQLLPVKRKLGFYEWTSRLKSHVNPTGTVLLQLENTMQMSLKDLLL | + (+ = 0.5 to 1.5 relative activity over WT GLA (SEQ ID NO: 5)) | + (+ = 0.5 to 1.5 relative activity over WT GLA (SEQ ID NO: 5)) | + (+ = 0.5 to 1.5 relative activity over WT GLA (SEQ ID NO: 5)) |
| 27 (protein, Synthetic Polypeptide sequence of Variant No. 27 of mature Human GLA) LDNGLARTPTMGWLHWERFMCNLDCQEEPDSCISEKLFMEMAELMVSEGWKDAGYEYLCIDDCWMAPQRDSEGRLQADPQRFPHGIRQLANYVHSKGLKLGIYADVGNKTCAGFPGSFGYYDIDAQTFADWGVDLLKFDGCYCDSLENLADGYKHMSLALNRTGRSIVYSCEWPLYMWPFQKPNYTEIRQYCNHWRNFADIDDSWKSIKSILDWTSFNQERIVDVAGPGGWNDPDMLVIGNFGLSWNQQVTQMALWAIMAAPLFMSNDLRHISPQAKALLQDKDVIAINQDPLGKQGYRLRQGDNFEVWERPLSGLAWAVAVINRQEIGGPRSYTIAVASLGKGVACNPACFITQLLPVKRKLGFYEWTSRLKSHINPTGTVLLQLENTMQMSLKDLLL | + (+ = 0.5 to 1.5 relative activity over WT GLA (SEQ ID NO: 5)) | + (+ = 0.5 to 1.5 relative activity over WT GLA (SEQ ID NO: 5)) | + (+ = 0.5 to 1.5 relative activity over WT GLA (SEQ ID NO: 5)) |
